{"source": "patent US20190185575A1", "about": "(ONCOTHERAPY SCIENCE, published 2019)", "target": "T1, human MELK protein (Maternal Embryonic Leucine zipper Kinase), full-length (human, UniProt Q14680 1-651)", "T1 construct": "It was detected in formalin-fixed paraffin sections (IHC) or in RIPA lysates after SDS-PAGE (western blot); MELK is an intracellular kinase, so 'on cells' here means in cells or sections; also called full-length MELK protein; endogenous MELK protein", "T1 sequence (Q14680 whole entry)": "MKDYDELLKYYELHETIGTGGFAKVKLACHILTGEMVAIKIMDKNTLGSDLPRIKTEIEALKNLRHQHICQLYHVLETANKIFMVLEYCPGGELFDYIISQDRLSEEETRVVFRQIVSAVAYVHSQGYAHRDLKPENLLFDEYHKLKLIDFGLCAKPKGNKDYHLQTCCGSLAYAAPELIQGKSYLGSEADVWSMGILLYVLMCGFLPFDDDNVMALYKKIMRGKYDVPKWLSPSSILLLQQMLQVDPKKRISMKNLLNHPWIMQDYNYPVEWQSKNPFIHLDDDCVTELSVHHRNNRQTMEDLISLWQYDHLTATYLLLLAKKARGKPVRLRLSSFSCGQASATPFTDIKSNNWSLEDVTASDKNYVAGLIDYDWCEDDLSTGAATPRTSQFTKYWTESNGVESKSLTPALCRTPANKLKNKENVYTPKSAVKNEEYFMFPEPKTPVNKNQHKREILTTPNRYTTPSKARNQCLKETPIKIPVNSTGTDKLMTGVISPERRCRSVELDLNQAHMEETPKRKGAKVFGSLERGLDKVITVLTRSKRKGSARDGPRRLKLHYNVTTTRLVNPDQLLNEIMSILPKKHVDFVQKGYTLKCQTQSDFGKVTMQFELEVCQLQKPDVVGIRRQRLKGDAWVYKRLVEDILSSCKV", "assay": "immunohistochemical staining of formalin-fixed paraffin sections, MELK/293T vs Mock/293T", "description": "For antigen activation, sections immersed in the antigen-activating solution, pH 9 (Nichirei Biosciences Inc.) were incubated at 125° C. for 30 seconds. After incubation, these were left to stand for 20 minutes at room temperature, and washed for 5 minutes under running water. After immersing them in 3.0% hydrogen peroxide water for 10 minutes to perform blocking of endogenous peroxidase, they were washed with Wash Buffer (TBS-T (Takara Bio)) three times for 5 minutes. Furthermore, with the aim of blocking non-specific reactions, a suitable amount of Protein Block Solution (Dako) was dropped onto the sections and then left to stand for 10 minutes. The primary antibodies (OTSMAb01, MELK(N449)pAb, MELK(HPA017214)pAb) were respectively dropped in suitable amounts within a humid box, left to stand for 60 minutes, and then washed with the Wash Buffer three times for 5 minutes. Histofine Simple Stain MAX PO (Nichirei Biosciences Inc.) was dropped in suitable amounts as the secondary antibody in a humid box, and left to stand for 30 minutes. These were then washed with the Wash Buffer three times for 5 minutes. The chromogenic reaction was done using the DAB substrate solution (Nichirei Biosciences Inc.). The slide sections were immersed for 20 seconds in haematoxylin (Dako), and washed under running water. […]"}
{"binder": "anti-MELK mouse monoclonal antibody clone OTSMAb01 (antibody, V domains shown, Mouse monoclonal antibody from a hybridoma (Balb/c splenocytes x SP2/0), purified from culture solution on a Protein A column; also called anti-MELK antibody (OTSMAb01); hybridoma clone OTSMAb01) VH: EVQLQQSGAELVRPGALVKLSCKASGFNIKDYYMHWVKQRPEQGLEWIGWIDPENGNTIYDPKFQGKASVTADTSSNTAYLQLSSLTSEDTAVYYCTSHHYSAMDYWGQGTSVTVSS VL: DVVMTQTPLSLPVSLRDQASISCRSSQSLVHSNGNTYLHWYLQKPGQSPKLLIYKVSNRFSGVPDRFSGSGSGTDFTLIISRVEAEDLGVYFCSQSTYVPLTFGAGTKLELKR", "values": [{"measurement": "binding result", "result": "binds"}]}
